# Measured values taken from US20150166666A1 (Chugai, published 2015).
# Where two headings read alike, the source gives them in different places.
# T1: Soluble recombinant human IL-6 receptor (SR344) (human, UniProt P08887 20-344, biotinylated (sites not given) only in the membrane-type dissociation assay)
# T1 construct: range 1-344; also called soluble IL-6 receptor; soluble human IL-6 receptor
# T1 sequence (looked up): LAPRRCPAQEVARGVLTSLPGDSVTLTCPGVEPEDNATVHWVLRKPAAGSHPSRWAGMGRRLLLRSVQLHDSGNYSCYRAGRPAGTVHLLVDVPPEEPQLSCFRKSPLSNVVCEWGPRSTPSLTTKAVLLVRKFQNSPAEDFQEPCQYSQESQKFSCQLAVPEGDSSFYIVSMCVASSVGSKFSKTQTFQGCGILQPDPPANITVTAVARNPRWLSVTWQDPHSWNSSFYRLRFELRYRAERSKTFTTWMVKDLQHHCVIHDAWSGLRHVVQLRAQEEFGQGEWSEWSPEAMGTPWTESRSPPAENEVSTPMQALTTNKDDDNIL
# What was measured:
# [1] = target: T1, Soluble recombinant human IL-6 receptor …; experiment: SPR, Biacore T100, biotinylated SR344 on streptavidin chip as membrane-type IL-6 receptor, ratio of dissociation rates
# Experimental: (§1) The antigen-antibody reaction with membrane-type IL-6 receptor at pH 5.8 and pH 7.4 was observed using Biacore T100 (GE Healthcare). The binding to membrane-type IL-6 receptor was assessed by evaluating the binding to soluble human IL-6 receptor immobilized onto the sensor chip. SR344 was biotinylated by a method known to those skilled in the art. Based on the affinity between biotin and streptavidin, biotinylated soluble human IL-6 receptor was immobilized onto the sensor chip via streptavidin. All measurements were conducted at 37° C. The mobile phase buffer was 10 mM MES (pH 5.8), 150 mM NaCl, and 0.05% Tween 20. […] The dissociation rate constant (kd (1/s)) at pH 5.8 was calculated using Biacore T100 Evaluation Software (GE Healthcare) by fitting only the dissociation phase at pH 5.8. The sample concentration was 0.25 μg/ml. Binding was carried out in 10 mM MES (pH 7.4), 150 mM NaCl, and 0.05% Tween 20, and dissociation was carried out in 10 mM MES (pH 5.8), 150 mM NaCl, and 0.05% Tween 20. Likewise, the dissociation rate constant (kd (1/s)) at pH 7.4 was calculated using Biacore T100 Evaluation Software (GE Healthcare) by fitting only the dissociation phase at pH 7.4. The sample concentration was 0.5 μg/ml. Binding was carried out in 10 mM MES (pH 7.4), 150 mM NaCl, and 0.05% Tween 20, and dissociation was carried out in 10 mM MES (pH 7.4), 150 mM NaCl, and 0.05% Tween 20.
# [2] = target: T1, Soluble recombinant human IL-6 receptor …; experiment: cell-based or functional assay
# [3] = target: T1, Soluble recombinant human IL-6 receptor …; experiment: SPR, Biacore T100, biotinylated SR344 on streptavidin chip as membrane-type IL-6 receptor, ratio of dissociation rates; remark: listed apart in the source
# Experimental: The rates of dissociation of TOCILIZUMAB, Fv3-M73, and Fv4-M73 from membrane-type IL-6 receptor at pH 7.4 and 5.8 were determined.
# as §1
# [4] = target: T2, Soluble human FcRn (complex of FcRn and beta2-microglobulin) (human, UniProt P55899 24-290; P16213 21-119); experiment: Biacore, binding to human FcRn
# T2 construct: Both constructs are stated with their signal regions (Met1-Leu290; Met1-Met119)
# T2 sequence (P55899 24-290 limits assumed, chain 1 of 2): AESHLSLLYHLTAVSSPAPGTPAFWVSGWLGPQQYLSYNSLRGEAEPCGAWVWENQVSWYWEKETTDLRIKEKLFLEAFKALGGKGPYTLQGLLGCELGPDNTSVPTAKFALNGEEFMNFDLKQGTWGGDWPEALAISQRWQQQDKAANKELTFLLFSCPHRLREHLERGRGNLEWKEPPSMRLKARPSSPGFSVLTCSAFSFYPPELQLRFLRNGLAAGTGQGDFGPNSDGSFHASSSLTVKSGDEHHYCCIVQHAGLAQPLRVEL
# T2 sequence (P16213 21-119 limits assumed, chain 2 of 2): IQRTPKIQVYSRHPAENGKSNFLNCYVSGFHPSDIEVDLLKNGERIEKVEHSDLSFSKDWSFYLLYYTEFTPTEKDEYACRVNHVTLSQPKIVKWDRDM
# [5] = target: T1, Soluble recombinant human IL-6 receptor …; experiment: SPR, Biacore T100, soluble IL-6 receptor as analyte
# Experimental: (§2) Antigen-antibody reaction kinetics was analyzed using Biacore T100 (GE Healthcare). The soluble human IL-6 receptor-antibody interaction was measured by immobilizing appropriate amounts of protein A or protein A/G or anti-IgG (γ-chain specific) F(ab′)2 onto a sensor chip by amine coupling method, binding antibodies of interest onto the chip at pH7.4, and then running soluble IL-6 receptor adjusted to various concentrations at pH7.4 over the chip as an analyte. All measurements were carried out at 37° C. The kinetic parameters, association rate constant kₐ (1/Ms) and dissociation rate constant kd (1/s) were calculated from the sensorgrams obtained by measurement. Then, KD (M) was determined based on the rate constants. The respective parameters were determined using Biacore T100 Evaluation Software (GE Healthcare).
# [6] = target: T1, Soluble recombinant human IL-6 receptor …; experiment: SPR, Biacore T100, antibody captured on chip, soluble IL-6 receptor as analyte; ratio against TOCILIZUMAB
# Experimental: as §2
# [7] = target: T1, Soluble recombinant human IL-6 receptor …; experiment: cell-based or functional assay; remark: listed apart in the source
# [8] = target: T2, Soluble human FcRn (complex of FcRn and …); experiment: Biacore, binding to human FcRn; remark: listed apart in the source
binder,measurement,setting,value
"TOCILIZUMAB (H chain WT-IgG1; L chain WT-kappa) (antibody, IgG1/kappa; also called TOCILIZUMAB-IgG1; humanized anti-IL-6 receptor IgG1 antibody) heavy: not shown light: not shown","kd (pH 5.8)/kd (pH 7.4), pH …",[1],1
same,IC50 (read off the curve),[2],~0.5 µg/mL
same,"kd (pH 5.8)/kd (pH 7.4), pH …",[3],1
same,Kd,[4],1620 nM
"RDC-23 (H chain RDC23H-IgG1; L chain RDC-23L-kappa) (antibody, V domains shown) VH: QVQLQESGPGLVRPSQTLSLTCTVSGYSITSDHAWSWVRQPPGRGLEWIGYISYSGITTYNPSLKSRVTMLRDTSKNQFSLRLSSVTAADTAVYYCARVLARITAMDYWGQGSLVTVSS VL: DIQMTQSPSSLSASVGDRVTITCRASQDISSYLNWYQQKPGKAPKLLIYYTSRLHSGVPSRFSGSGSGTDFTFTISSLQPEDIATYYCGQGNRLPYTFGQGTKVEIKR",fold higher affinity than TOCILIZUMAB,[5],~60 times
same,fold affinity relative to TOCILIZUMAB,[6],~60 times
same,IC50 (read off the curve),[7],~0.02 µg/mL
"TOCILIZUMAB-M58 (H chain WT-M58; L chain WT-kappa) (antibody, IgG2, M58 constant region: altered IgG2 (SKSC with further changes, Gly446 and Lys447 deleted)) heavy: QVQLQESGPGLVRPSQTLSLTCTVSGYSITSDHAWSWVRQPPGRGLEWIGYISYSGITTYNPSLKSRVTMLRDTSKNQFSLRLSSVTAADTAVYYCARSLARTTAMDYWGQGSLVTVSSASTKGPSVFPLAPSSKSTSGGTAALGCLVKDYFPEPVTVSWNSGALTSGVHTFPAVLQSSGLYSLSSVVTVPSSNFGTQTYTCNVDHKPSNTKVDKTVERKSCVECPPCPAPPVAGPSVFLFPPKPKDTLMISRTPEVTCVVVDVSQEDPEVQFNWYVDGVEVHNAKTKPREEQFNSTFRVVSVLTVVHQDWLNGKEYKCKVSNKGLPAPIEKTISKTKGQPREPQVYTLPPSQEEMTKNQVSLTCLVKGFYPSDIAVEWESNGQPENNYKTTPPMLDSDGSFFLYSKLTVDKSRWQEGNVFSCSVMHEALHNHYTQKSLSLSP light: not shown",fold superior binding than TOCILIZUMAB-IgG1,[8],~1.4 times
"TOCILIZUMAB-M73 (H chain WT-M73; L chain WT-kappa) (antibody, M73 constant region: M58 with asparagine 434 (EU) changed to alanine) heavy: QVQLQESGPGLVRPSQTLSLTCTVSGYSITSDHAWSWVRQPPGRGLEWIGYISYSGITTYNPSLKSRVTMLRDTSKNQFSLRLSSVTAADTAVYYCARSLARTTAMDYWGQGSLVTVSSASTKGPSVFPLAPSSKSTSGGTAALGCLVKDYFPEPVTVSWNSGALTSGVHTFPAVLQSSGLYSLSSVVTVPSSNFGTQTYTCNVDHKPSNTKVDKTVERKSCVECPPCPAPPVAGPSVFLFPPKPKDTLMISRTPEVTCVVVDVSQEDPEVQFNWYVDGVEVHNAKTKPREEQFNSTFRVVSVLTVVHQDWLNGKEYKCKVSNKGLPAPIEKTISKTKGQPREPQVYTLPPSQEEMTKNQVSLTCLVKGFYPSDIAVEWESNGQPENNYKTTPPMLDSDGSFFLYSKLTVDKSRWQEGNVFSCSVMHEALHAHYTQKSLSLSP light: not shown",fold superior binding than TOCILIZUMAB-IgG1,[8],~3.8 times
"H53/L28 (H chain H53-IgG1; L chain L28-kappa) (antibody, V domains shown, IgG1/kappa; also called TOCILIZUMAB with reduced isoelectric point) VH: QVQLQESGPGLVKPSETLSLTCAVSGYSISDDHAWSWVRQPPGEGLEWIGYISYSGITNYNPSLKGRVTISRDTSKNQFSLKLSSVTAADTAAYYCARSLARTTAMDYWGEGTLVTVSS VL: DIQMTQSPSSLSASVGDSVTITCQASQDISSYLNWYQQKPGKAPELLIYYGSELHSGVPSRFSGSGSGTDFTFTISSLEAEDAATYYCQQGNSLPYTFGQGTKVEIER",IC50 (read off the curve),[2],~0.1 µg/mL
same,fold higher affinity than TOCILIZUMAB,[5],~6 times
"Fv3-M73 (H chain VH4-M73; L chain VL1-kappa) (antibody, V domains shown, Fully humanized) VH: QVQLQESGPGLVKPSETLSLTCAVSGHSISHDHAWSWVRQPPGEGLEWIGFISYSGITNYNPTLQGRVTISRDNSKNTLYLQMNSLRAEDTAVYYCARSLARTTAMDYWGEGTLVTVSS VL: DIQMTQSPSSLSASVGDSVTITCQASRDISSHLNWYQQKPGKAPELLIYYGSHLLSGVPSRFSGSGSGTDFTFTISSLEAEDAATYYCGQGNRLPYTFGQGTKVEIER","kd (pH 5.8)/kd (pH 7.4), pH …",[3],10.9
"H3pI/L73 (H chain H3pI-IgG1; L chain L73-kappa) (antibody, V domains shown, IgG1/kappa) VH: QVQLQESGPGLVKPSETLSLTCAVSGHSISHDHAHSWVRQPPGEGLEWIGYISYSGITNYNPSLKGRVTISRDTSKNQFSLKLSSVTAADTAAYYCARSLARTTAMDYWGEGTLVTVSS VL: DIQMTQSPSSLSASVGDSVTITCQASQHISSHLNWYQQKPGKAPELLIYYGSHLHSGVPSRFSGSGSGTDFTFTISSLEAEDAATYYCGQGNRLPYTFGQGTKVEIER","kd (pH 5.8)/kd (pH 7.4), pH …",[1],2.59
"Fv4-M73 (H chain VH3-M73; L chain VL3-kappa) (antibody, V domains shown, Fully humanized) VH: QVQLQESGPGLVKPSETLSLTCAVSGHSISHDHAWSWVRQPPGEGLEWIGFISYSGITNYNPSLQGRVTISRDNSKNTLYLQMNSLRAEDTAVYYCARSLARTTAMDYWGEGTLVTVSS VL: DIQMTQSPSSLSASVGDSVTITCQASTDISSHLNWYQQKPGKAPELLIYYGSHLLSGVPSRFSGSGSGTDFTFTISSLEAEDAATYYCGQGNRLPYTFGQGTKVEIER","kd (pH 5.8)/kd (pH 7.4), pH …",[3],10.1
